Laboratory results as given in ChEMBL document CHEMBL3734689, “Enzyme kinetics and inhibition of histone acetyltransferase KAT8” (Eur J Med Chem, 2015).

Columns and labels:
Conditions in all cases: Homo sapiens
[1] = compound: CCCCCCCCCCCCCCCc1cccc(O)c1C(=O)O; assay: Uncompetitive inhibition of recombinant N-terminal His6-tagged KAT8 (unknown origin) expressed in Escherichia Coli BL21 DE3 cells assessed as Vmax for acetyl coenzyme A at 160 uM
[2] = compound: CCCCCCCCCCCCCCCc1cccc(O)c1C(=O)O; assay: Inhibition of recombinant N-terminal His6-tagged KAT8 (unknown origin) expressed in Escherichia Coli BL21 DE3 cells assessed as Vmax for histone H4 peptide at 240 uM
[3] = compound: CCCCCCCCCCCCCCCc1cccc(O)c1C(=O)O; assay: Inhibition of recombinant N-terminal His6-tagged KAT8 (unknown origin) expressed in Escherichia Coli BL21 DE3 cells assessed as Vmax for histone H4 peptide at 160 uM
[4] = compound: CCCCCCCCCCCCCCCc1cccc(O)c1C(=O)O; assay: Uncompetitive inhibition of recombinant N-terminal His6-tagged KAT8 (unknown origin) expressed in Escherichia Coli BL21 DE3 cells assessed as Km for acetyl coenzyme A at 80 uM
[5] = compound: CCCCCCCCCCCCCCCc1cccc(O)c1C(=O)O; assay: Uncompetitive inhibition of recombinant N-terminal His6-tagged KAT8 (unknown origin) expressed in Escherichia Coli BL21 DE3 cells assessed as Km for acetyl coenzyme A at 240 uM
[6] = compound: CCCCCCCCCCCCCCCc1cccc(O)c1C(=O)O; assay: Inhibition of recombinant N-terminal His6-tagged KAT8 (unknown origin) expressed in Escherichia Coli BL21 DE3 cells assessed as Vmax for histone H4 peptide at 80 uM
[7] = compound: CCCCCCCCCCCCCCCc1cccc(O)c1C(=O)O; assay: Uncompetitive inhibition of recombinant N-terminal His6-tagged KAT8 (unknown origin) expressed in Escherichia Coli BL21 DE3 cells assessed as Vmax for acetyl coenzyme A at 80 uM
[8] = compound: CCCCCCCCCCCCCCCc1cccc(O)c1C(=O)O; assay: Uncompetitive inhibition of recombinant N-terminal His6-tagged KAT8 (unknown origin) expressed in Escherichia Coli BL21 DE3 cells assessed as Km for acetyl coenzyme A at 160 uM
[9] = compound: CCCCCCCCCCCCCCCc1cccc(O)c1C(=O)O; assay: Uncompetitive inhibition of recombinant N-terminal His6-tagged KAT8 (unknown origin) expressed in Escherichia Coli BL21 DE3 cells assessed as Vmax for acetyl coenzyme A at 240 uM

B1: Histone acetyltransferase KAT8 (Homo sapiens), Q9H7Z6 (protein)
chain: MAAQGAAAAVAAGTSGVAGEGEPGPGENAAAEGTAPSPGRVSPPTPARGEPEVTVEIGETYLCRRPDSTWHSAEVIQSRVNDQEGREEFYVHYVGFNRRLDEWVDKNRLALTKTVKDAVQKNSEKYLSELAEQPERKITRNQKRKHDEINHVQKTYAEMDPTTAALEKEHEAITKVKYVDKIHIGNYEIDAWYFSPFPEDYGKQPKLWLCEYCLKYMKYEKSYRFHLGQCQWRQPPGKEIYRKSNISVYEVDGKDHKIYCQNLCLLAKLFLDHKTLYFDVEPFVFYILTEVDRQGAHIVGYFSKEKESPDGNNVACILTLPPYQRRGYGKFLIAFSYELSKLESTVGSPEKPLSDLGKLSYRSYWSWVLLEILRDFRGTLSIKDLSQMTSITQNDIISTLQSLNMVKYWKGQHVICVTPKLVEEHLKSAQYKKPPITVDSVCLKWAPPKHKQVKLSKK
[1]
  Vmax: 9.2 pmol/min
[2]
  Vmax: 12 pmol/min
[3]
  Vmax: 12 pmol/min
[4]
  Km: 2.4 µM
[5]
  Km: 1 µM
[6]
  Vmax: 12 pmol/min
[7]
  Vmax: 12 pmol/min
[8]
  Km: 1.9 µM
[9]
  Vmax: 6.1 pmol/min
